The target of experiment [1] is JellyOp (opsin-based pigment from the box jellyfish Carybdea rastonii) (Carybdea rastonii).
Experiment [2] concerns the target JellyOp(K72T) (Carybdea rastonii).
For experiment [3], the target named is JellyOp (opsin-based pigment from the box jellyfish Carybdea rastonii) (Carybdea rastonii). The source holds these as a separate data set.

Sequence of JellyOp (opsin-based pigment from the box jellyfish Carybdea rastonii) (Carybdea rastonii) (B6F0Y5 entry or part of it): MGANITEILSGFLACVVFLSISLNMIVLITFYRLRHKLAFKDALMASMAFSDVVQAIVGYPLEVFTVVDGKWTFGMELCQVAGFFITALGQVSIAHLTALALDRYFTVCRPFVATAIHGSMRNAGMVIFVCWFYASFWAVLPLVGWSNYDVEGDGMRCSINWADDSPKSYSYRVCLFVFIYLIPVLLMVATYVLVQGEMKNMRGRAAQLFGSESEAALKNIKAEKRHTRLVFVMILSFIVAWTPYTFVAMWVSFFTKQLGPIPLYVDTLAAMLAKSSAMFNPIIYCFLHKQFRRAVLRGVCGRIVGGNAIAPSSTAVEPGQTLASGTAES

“Gαs (from UniProt P63092 1-394) (natural protein)” came in with a time constant of inactivation (TauOFF) of the JellyOp GIRK response by high-intensity violet light (405 nm) in experiment [1] of 252 ms. In experiment [2], the fast time constant of GIRK current inactivation by violet light (double-exponential decay) stood at 281 ms and the slow time constant of GIRK current inactivation by violet light (double-exponential decay) worked out at 8.4 s. In addition, in experiment [3], the time constant of onset (TauON) of the light-triggered GIRK current in cells expressing JellyOp came out at 34 ms.

The values are drawn from paper PMC10147646.
